Target: mMC4R-NanoLuc and mMC4R-HaloTag homodimer (mouse) (UniProt P56450)
Test: cell-based or functional assay

Sequence of mMC4R-NanoLuc and mMC4R-HaloTag homodimer (mouse) (P56450 whole entry, chain 1 of 2): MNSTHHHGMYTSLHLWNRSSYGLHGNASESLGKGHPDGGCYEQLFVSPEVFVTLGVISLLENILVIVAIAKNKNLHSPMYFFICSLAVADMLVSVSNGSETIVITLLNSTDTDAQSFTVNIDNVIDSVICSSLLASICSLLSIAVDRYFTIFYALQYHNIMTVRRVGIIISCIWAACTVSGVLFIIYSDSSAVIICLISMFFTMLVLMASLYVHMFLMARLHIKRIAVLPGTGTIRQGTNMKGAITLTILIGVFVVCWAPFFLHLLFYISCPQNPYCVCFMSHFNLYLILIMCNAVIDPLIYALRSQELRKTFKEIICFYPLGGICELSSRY
Sequence of mMC4R-NanoLuc and mMC4R-HaloTag homodimer (mouse) (P56450 whole entry, chain 2 of 2): as the sequence (P56450 whole entry, chain 1 of 2) above

For “α-MSH (from UniProt P01189 138-150) (ligand)”, the reduction in BRET signal at 10 µM compared to basal signal was 15%.
